The text below walks through data of the RNAGym collection of RNA variant scans (doi:10.7554/elife.80360).

To fix the notation:
B1: HDV Ribozyme (parent)
chain: GGCCGGCAUGGUCCCAGCCUCCUCGCUGGCGCCGGCUGGGCAACAUUCCGAGGGGACCGUCCCCUCGGUAAUGGCGAAUGGGACCCA

The variants in the series derive from B1. As to the kind of experiment: self-cleavage, relative activity (ratio to wild type); higher = more cleavage; co-transcriptional.
Consider GGCCGGCAUGGUCCCAGCCUCCUCGCUGGCUCCGGCUGGGCAACAUGCCGAGGGGACCGUCCCCUCGGUAAUGGCGAAUGGGACCCA [G31U U47G], for which the self-cleavage came to 0.32.
For the variant GGCCGGCAUGGUCCCAGCCUCCUCGCUGGCGACGGCUGGGCAACACUCCGAGGGGACCGUCCCCUCGGUAAUGGCGAAUGGGACCCA [C32A U46C], the self-cleavage was found to be 0.128.
On to GGCCGGCAUGGUCCCAGCCUCCUCGCUGGCGACGGCUGGGCAACAGUCCGAGGGGACCGUCCCCUCGGUAAUGGCGAAUGGGACCCA [C32A U46G], for which the self-cleavage turned out to be 0.138.
As for GGCCGGCAUGGUCCCAGCCUCCUCGCUGGCUCCGGCUGGGCAACAUUCCGAGGGGACCGUCCCCUCGGUAAUGGCGAACGGGACCCA [G31U U79C], the self-cleavage came to 0.107.
Regarding GGCCGGCAUGGUCCCAGCCUCCUCGCUGGCGACGGCUGGGCAACAUUCCGAGGUGACCGUCCCCUCGGUAAUGGCGAAUGGGACCCA [C32A G54U], the self-cleavage amounted to 0.102.
With GGCCGGCAUGGUCCCAGCCUCCUCGCUGGCGACGGCUGGGCAACAUUCCGAGGGGACCGUCCCCUCGGUACUGGCGAAUGGGACCCA [C32A A71C], the self-cleavage came to 0.
Consider GGCCGGCAUGGUCCCAGCCUCCUCGCUGGCGGCGGCUUGGCAACAUUCCGAGGGGACCGUCCCCUCGGUAAUGGCGAAUGGGACCCA [C32G G38U], for which the self-cleavage was found to be 0.089.
As for GGCCGGCAUGGUCCCAGCCUCCUCGCUGGCGACGGCUGGGCAACAUUCCGAGGGGACCGUCCCCUCGGUAAUGGCGAAUGGGACUCA [C32A C85U], the self-cleavage amounted to 0.231.
On to GGCCGGCAUGGUCCCAGCCUCCUCGCUGGCGACGGCUGGGCAACAUUCCGAGAGGACCGUCCCCUCGGUAAUGGCGAAUGGGACCCA [C32A G53A], for which the self-cleavage worked out at 0.234.
GGCCGGCAUGGUCCCAGCCUCCUCGCUGGCGACGGCUGGGCAACAUUCCGAGGGGACCGUCCUCUCGGUAAUGGCGAAUGGGACCCA [C32A C63U]: the self-cleavage worked out at 0.332.
The same measure for GGCCGGCAUGGUCCCAGCCUCCUCGCUGGCGACGGCUGGGCAACAUUCCGAGGGGACCGUCCCGUCGGUAAUGGCGAAUGGGACCCA [C32A C64G]: 0.131; for GGCCGGCAUGGUCCCAGCCUCCUCGCUGGCGACGGCUGGGCAACAUUCCGAGGGGACCGUCCCAUCGGUAAUGGCGAAUGGGACCCA [C32A C64A]: 0.166.
With GGCCGGCAUGGUCCCAGCCUCCUCGCUGGCGACGGCUGGGCAACAUUCCGAGGGGACCGUCCCCUCGGCAAUGGCGAAUGGGACCCA [C32A U69C], the self-cleavage was determined as 0.161.
Regarding GGCCGGCAUGGUCCCAGCCUCCUCGCUGGCGACGGCCGGGCAACAUUCCGAGGGGACCGUCCCCUCGGUAAUGGCGAAUGGGACCCA [C32A U37C], the self-cleavage turned out to be 0.203.
The same measure for GGCCGGCAUGGUCCCAGCCUCCUCGCUGGCGGCGGCUGGGCAACAUUCCGAGGUGACCGUCCCCUCGGUAAUGGCGAAUGGGACCCA [C32G G54U]: 0.153; for GGCCGGCAUGGUCCCAGCCUCCUCGCUGGCGGCGGCUGCGCAACAUUCCGAGGGGACCGUCCCCUCGGUAAUGGCGAAUGGGACCCA [C32G G39C]: 0.116.
Regarding GGCCGGCAUGGUCCCAGCCUCCUCGCUGGCGGCGGCUGUGCAACAUUCCGAGGGGACCGUCCCCUCGGUAAUGGCGAAUGGGACCCA [C32G G39U], the self-cleavage came out at 0.0563.
The same measure for GGCCGGCAUGGUCCCAGCCUCCUCGCUGGCGGCGGCUGGGCAGCAUUCCGAGGGGACCGUCCCCUCGGUAAUGGCGAAUGGGACCCA [C32G A43G]: 0.0489; for GGCCGGCAUGGUCCCAGCCUCCUCGCUGGCGGCGGCUGGGCAACAUUCGGAGGGGACCGUCCCCUCGGUAAUGGCGAAUGGGACCCA [C32G C49G]: 0.135.
On to GGCCGGCAUGGUCCCAGCCUCCUCGCUGGCGGCGGCUGGGCAACAUUCCGAGGGGACCGUCCCGUCGGUAAUGGCGAAUGGGACCCA [C32G C64G], for which the self-cleavage was 0.0405.
For GGCCGGCAUGGUCCCAGCCUCCUCGCUGGCGGCGGCUGGGCAACAUUCCGACGGGACCGUCCCCUCGGUAAUGGCGAAUGGGACCCA [C32G G52C], the self-cleavage came to 0.208.
As for GGCCGGCAUGGUCCCAGCCUCCUCGCUGGCGGCGGCCGGGCAACAUUCCGAGGGGACCGUCCCCUCGGUAAUGGCGAAUGGGACCCA [C32G U37C], the self-cleavage was 0.264.
Regarding GGCCGGCAUGGUCCCAGCCUCCUCGCUGGCGGCGGCUGGGCAACAUUCCGAGGGGACUGUCCCCUCGGUAAUGGCGAAUGGGACCCA [C32G C58U], the self-cleavage was 0.0234.
With GGCCGGCAUGGUCCCAGCCUCCUCGCUGGCGGCGGCUGGGCAACAUUCCGAGGGGACGGUCCCCUCGGUAAUGGCGAAUGGGACCCA [C32G C58G], the self-cleavage is 0.0773.
The same measure for GGCCGGCAUGGUCCCAGCCUCCUCGCUGGCGACGGCUGGGCAACAUUCCGAGGGGACCGUCCCCUCGGUAAUGUCGAAUGGGACCCA [C32A G74U]: 0.117; for GGCCGGCAUGGUCCCAGCCUCCUCGCUGGCGGCGGCUGGGAAACAUUCCGAGGGGACCGUCCCCUCGGUAAUGGCGAAUGGGACCCA [C32G C41A]: 0.0354.
GGCCGGCAUGGUCCCAGCCUCCUCGCUGGCGACGGCUGGGCAACAUUCCGAGGGGACCGUCCCCUCGGUAAUGGCGAAUGGGAACCA [C32A C84A]: the self-cleavage was 0.
Take GGCCGGCAUGGUCCCAGCCUCCUCGCUGGCGACGGCUGGGCAACAUUCCGAGGGGUCCGUCCCCUCGGUAAUGGCGAAUGGGACCCA [C32A A56U]: the self-cleavage amounted to 0.369.
On to GGCCGGCAUGGUCCCAGCCUCCUCGCUGGCGGCGGCUGGGCAACAUUCCGAGGGGACCGUCCCCUCGGUAAUGGAGAAUGGGACCCA [C32G C75A], for which the self-cleavage came out at 0.154.
With GGCCGGCAUGGUCCCAGCCUCCUCGCUGGCGACGGCUGGGCAACAUUCCGAGGGGACCGUCCCCUCGGUAAUGGCGAAUGGGCCCCA [C32A A83C], the self-cleavage was 0.0665.
On to GGCCGGCAUGGUCCCAGCCUCCUCGCUGGCGGCGUCUGGGCAACAUUCCGAGGGGACCGUCCCCUCGGUAAUGGCGAAUGGGACCCA [C32G G35U], for which the self-cleavage was 0.0583.
Take GGCCGGCAUGGUCCCAGCCUCCUCGCUGGCGGCGCCUGGGCAACAUUCCGAGGGGACCGUCCCCUCGGUAAUGGCGAAUGGGACCCA [C32G G35C]: the self-cleavage was determined as 0.0386.
